Measurements taken from patent publication US20240108746A1 (Molecular Partners, published 2024).
Substitutions are numbered along the chain they refer to. Values joined by “and” are separate entries in the source; they are usually repeats but may differ in a detail not shown here. Equal entries are not always repeated.

B1: Binder #5 (designed binder)
chain: MRGSHHHHHHGSDLGKKLLQAARAGQLDEVRELLKAGADVNAKDHYGWTPLHIAAQIGHLEIVEVLLKAGADVNAKDWIGYTPLHLAASHGHLEIVEVLLKAGADVNAKDVSGKTPLHVAAAHGHLEIVEVLLKAGADVNAQDKSGKTPADLAARAGHQDIAEVLQKAA
B2: Binder #10 (designed binder)
chain: B1 chain with I53L, Q56S, I57E, Y81W, H90F, V119I, A122R, H123Q
B3: Binder #9 (designed binder)
chain: MRGSHHHHHHGSDLGKKLLQAARAGQLDEVRELLKAGADVNAKDHYGWTPLHLAASEGHLEIVEVLLKAGADVNAKDWIGWTPLHLAASFGHLEIVEVLLKAGADVNAKDVSGKTPLHIAARQGHLEIVEVLLKAGADVNAQDKSGKTPADLAARAGHQDIAEVLQLQKAA
B4: Binder #4 (designed binder)
chain: MRGSHHHHHHGSDLGKKLLQAARAGQLDEVRELLKAGADVNAKDFKGLTPLHLAAEHGHLEIVEVLLKAGADVNAKDVYGWTPLHWAAAKGHLEIVEVLLKAGADVNAKDWLGITPLHLAASHGHLEIVEVLLKAGADVNAQDKSGKTPADLAARAGHQDIAEVLQKAA
B5: Binder #1 (designed binder)
chain: B4 chain with E56A, W86I, K90S
notes: expressed in E. coli and purified by its His-tag
B6: Binder #7 (designed binder)
chain: B1 chain with I53L, Q56A, I57E, L86I, V111S, V119I, A122Q
B7: Binder #6 (designed binder)
chain: MRGSHHHHHHGSDLGKKLLQAARAGQLDEVRELLKAGADVNAKDQYGWTPLHLAAYSGHLEIVEVLLKAGADVNAKDWVGWTPLHLAASHGHLEIVEVLLKAGADVNAKDEAGRTPLHIAAKQGHLEIVEVLLKAGADVNAQDKSGKTPADLAARAGHQDIAEVLQKAA
B8: Binder #8 (designed binder)
chain: B1 chain with I57R, I79L, Y81W, L86V, V111L, K114R, V119I, A122R, H123Q
B9: Binder #2 (designed binder)
chain: B4 chain with E56A, K90S
B10: Binder #3 (designed binder)
chain: B4 chain with E56A

Biological target: T1, TCE #1
T1 construct: also called T-cell engager; α-CD123×α-CD33×α-CD3 T-cell engager
T1 chain: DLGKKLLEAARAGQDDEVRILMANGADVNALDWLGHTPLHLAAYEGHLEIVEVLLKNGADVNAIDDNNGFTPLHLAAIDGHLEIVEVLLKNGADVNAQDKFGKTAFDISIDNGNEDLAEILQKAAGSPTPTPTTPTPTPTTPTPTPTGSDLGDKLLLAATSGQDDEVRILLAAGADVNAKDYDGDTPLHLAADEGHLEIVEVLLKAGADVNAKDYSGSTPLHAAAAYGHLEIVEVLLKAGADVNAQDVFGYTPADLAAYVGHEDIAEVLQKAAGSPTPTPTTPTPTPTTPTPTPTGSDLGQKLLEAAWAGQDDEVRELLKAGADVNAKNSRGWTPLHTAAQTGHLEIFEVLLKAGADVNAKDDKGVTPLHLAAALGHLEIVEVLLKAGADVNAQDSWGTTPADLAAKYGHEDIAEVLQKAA
Test: not stated in the sentence (affinity quoted for the Incucyte experiment with TCE #1)

For B1, the Kd was at most 0.006 nM.

Biological target: T2, TCE #2
T2 construct: also called α-HSA×α-CD123×α-CD33×α-CD3 T-cell engager; TCE (with a half-life extending moiety)
T2 chain: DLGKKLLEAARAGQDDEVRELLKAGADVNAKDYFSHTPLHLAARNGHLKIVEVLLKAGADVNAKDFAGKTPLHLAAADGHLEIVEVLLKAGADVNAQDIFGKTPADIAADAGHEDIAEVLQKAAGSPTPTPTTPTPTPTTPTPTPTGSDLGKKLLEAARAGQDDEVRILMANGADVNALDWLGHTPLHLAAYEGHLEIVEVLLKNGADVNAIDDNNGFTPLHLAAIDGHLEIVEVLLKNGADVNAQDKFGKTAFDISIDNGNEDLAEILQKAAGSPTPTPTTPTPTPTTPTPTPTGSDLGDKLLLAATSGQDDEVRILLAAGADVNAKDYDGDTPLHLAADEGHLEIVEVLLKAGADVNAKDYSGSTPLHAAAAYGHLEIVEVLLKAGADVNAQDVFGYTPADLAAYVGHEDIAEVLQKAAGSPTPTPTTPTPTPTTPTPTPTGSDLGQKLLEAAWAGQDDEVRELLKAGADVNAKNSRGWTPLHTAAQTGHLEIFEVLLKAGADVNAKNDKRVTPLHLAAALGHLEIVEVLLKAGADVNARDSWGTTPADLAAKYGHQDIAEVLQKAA
Test: not stated (affinity to the CD3 binding domain of TCE #2); Binder #10, 1 pM or lower

B2 was tested, and the Kd was at most 0.001 nM.

Biological target: T3, CD3-specific binding domain (SEQ ID NO:11)
T3 construct: Immobilized on beads in the sink chamber of the 'complex' Incucyte assay; also the first selection target; also called immobilized scavenger protein; bead-immobilized target protein
T3 chain: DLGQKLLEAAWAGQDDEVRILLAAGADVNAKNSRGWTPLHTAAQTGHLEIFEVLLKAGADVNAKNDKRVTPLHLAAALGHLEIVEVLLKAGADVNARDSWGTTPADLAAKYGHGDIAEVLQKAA
Test: bead-immobilized scavenger protein in the sink chamber of the complex Incucyte assay
Protocol: In the experiment described here, a TCE (TCE #1) was used as drug molecule.
As in Example 4, a tumor cell line expressing the TAA was used as target cell line which has been transduced with Incucyte Nuclight Red Lentivirus for detection by the Incucyte® camera. PanT-cells were added, together with different prodrug complexes. […] Additionally, unbound TCE #1 (10 pM) as well as background (i.e. no prodrug complex or TCE, but with beads) served as controls. Tumor cell growth was measured for a period of 5 days by determining the area of red objects detected by the Incucyte® camera.

B3: binds.

Biological target: T1, TCE #1
Test: cell-based or functional assay

First: B3
Second: B1
The “IC50, inhibition of TCE #1 (10 pM) mediated tumor cell killing (LDH release, OD492nm-620nm, 48 h)” value of the first is higher: 0.0518 nM for the first, 0.016 nM for the second.

B4 was tested, and the “IC50, inhibition of TCE #1 (10 pM) mediated tumor cell killing (LDH release, OD492nm-620nm, 48 h)” value was 0.0263 nM.

Biological target: T1, TCE #1
Test: cell-based or functional assay
Remark: another data set of the same source

Compared with B3, B1 is lower in “IC50, inhibition of TCE #1 (10 pM) mediated T-cell activation (CD25+ T-cells, % of CD8+, 48 h)” value: 0.0838 nM for the first, 0.0184 nM for the second.

B4 was tested, and the “IC50, inhibition of TCE #1 (10 pM) mediated T-cell activation (CD25+ T-cells, % of CD8+, 48 h)” value was 0.0338 nM.

Biological target: T2, TCE #2
Test: not stated (affinity to the CD3 effector moiety of TCE #2)

B5 showed a Kd of about 0.04 nM.

Biological target: T2, TCE #2
Test: not stated (affinity to the CD3 effector moiety of TCE #2); Binder #4, double-digit pM

In the case of B4, the Kd is reported as about 0.02 nM.

Biological target: T4, Biotinylated CD3-specific binding domain SEQ ID NO: 14 (biotinylated (site not stated))
T4 construct: Ligand on the neutravidin (NLC) SPR chip
T4 chain: T3 chain with I20E, A23K, G114Q
Test: SPR (comparable assays)

B2: binds.

Biological target: T5, Biotinylated CD3-specific binding domain SEQ ID NO: 13 (biotinylated (site not stated))
T5 construct: Ligand on the neutravidin (NLC) SPR chip; The same domain is the CD3-specific domain of TCE #1
T5 chain: T3 chain with I20E, A23K, N65D, R68G, R97Q, G114E
Test: SPR (comparable assays)

B2: binds.

Biological target: T4, Biotinylated CD3-specific binding …
Test: SPR (ProteOn XPR36), 33 C, multi-trace; biotinylated ligand on chip, binder as analyte
Protocol: (§1) Further SPR data were generated for Binders #1 to #9 (as listed in Example 1 above), binding to biotinylated CD3-specific binding domains having SEQ ID NOs: 13 and 14, respectively, on the chip. […] The blocking half-life (T_{1/2}) was then calculated.

B3 and B6 cannot be ordered by Kd: under 0.02 nM for the first, under 0.02 nM for the second.

B7 and B8 cannot be ordered by Kd: under 0.02 nM for the first, under 0.02 nM for the second.

First: B1
Second: B9
The Kd of the first is lower: under 0.02 nM for the first, 0.032 nM for the second.

Compared with B4, B5 is 1.8-fold higher in Kd: 0.019 nM for the first, 0.034 nM for the second.

With B10 the Kd was 0.029 nM.

B3 and B6 cannot be ordered by koff: under 5e-05 s⁻¹ for the first, under 5e-05 s⁻¹ for the second.

B7 and B8 cannot be ordered by koff: under 5e-05 s⁻¹ for the first, under 5e-05 s⁻¹ for the second.

B1 and B9 cannot be ordered by koff: under 5e-05 s⁻¹ for the first, 2e-05 s⁻¹ for the second.

Going from B4 to B5, the koff rises from 1.2e-05 s⁻¹ to 2.7e-05 s⁻¹ (2.2-fold).

B10 gave a koff of 1.9e-05 s⁻¹.

B9 and B4 are the same in kon: 630000 M⁻¹ s⁻¹ for the first, 630000 M⁻¹ s⁻¹ for the second.

B5 and B10 are within 1.5-fold of each other in kon: 790000 M⁻¹ s⁻¹ for the first, 650000 M⁻¹ s⁻¹ for the second.

Biological target: T5, Biotinylated CD3-specific binding …
Test: as above
Protocol: as §1

B3 and B6 cannot be ordered by Kd: under 0.02 nM for the first, under 0.02 nM for the second.

B7 and B8 cannot be ordered by Kd: under 0.02 nM for the first, under 0.02 nM for the second.

Going from B1 to B9, the Kd rises from under 0.02 nM to 0.028 nM.

First: B4
Second: B5
The Kd of the first is 3.6-fold lower: 0.011 nM for the first, 0.04 nM for the second.

In the case of B10, the Kd is reported as 0.016 nM.

B3 and B6 cannot be ordered by koff: under 5e-05 s⁻¹ for the first, under 5e-05 s⁻¹ for the second.

B7 and B8 cannot be ordered by koff: under 5e-05 s⁻¹ for the first, under 5e-05 s⁻¹ for the second.

B1 and B9 cannot be ordered by koff: under 5e-05 s⁻¹ for the first, 4e-05 s⁻¹ for the second.

Going from B4 to B5, the koff rises from 1.9e-05 s⁻¹ to 6.2e-05 s⁻¹ (3.3-fold).

B10 showed a koff of 2.8e-05 s⁻¹.

B9 and B4 are within 1.5-fold of each other in kon: 1.43e+06 M⁻¹ s⁻¹ for the first, 1.74e+06 M⁻¹ s⁻¹ for the second.

B5 and B10 are within 1.5-fold of each other in kon: 1.54e+06 M⁻¹ s⁻¹ for the first, 1.7e+06 M⁻¹ s⁻¹ for the second.

Biological target: T4, Biotinylated CD3-specific binding …
Test: calculated from SPR koff (ln2/koff)
Protocol: as §1

B3 and B6 cannot be ordered by “Blocking T1/2” value: over 3.9 h for the first, over 3.9 h for the second.

B7 and B8 cannot be ordered by “Blocking T1/2” value: over 3.9 h for the first, over 3.9 h for the second.

B1 and B9 cannot be ordered by “Blocking T1/2” value: over 3.9 h for the first, 9.6 h for the second.

First: B4
Second: B5
The “Blocking T1/2” value of the first is 2.3-fold higher: 16 h for the first, 7.1 h for the second.

For B10, the “Blocking T1/2” value was 10.1 h.

Biological target: T5, Biotinylated CD3-specific binding …
Test: calculated from SPR koff (ln2/koff)
Protocol: as §1

B3 and B6 cannot be ordered by “Blocking T1/2” value: over 3.9 h for the first, over 3.9 h for the second.

B7 and B8 cannot be ordered by “Blocking T1/2” value: over 3.9 h for the first, over 3.9 h for the second.

B1 and B9 cannot be ordered by “Blocking T1/2” value: over 3.9 h for the first, 4.8 h for the second.

Going from B4 to B5, the “Blocking T1/2” value falls from 10.1 h to 3.1 h (3.3-fold).

With B10 the “Blocking T1/2” value was 6.9 h.

Biological target: T1, TCE #1
Test: cell-based or functional assay
Remark: another data set of the same source

With B3 the “inhibition of TCE activity (complex Incucyte assay, functional sink chamber with beads coated with CD3-specific binding domain)” value was 12.3 molar ratio binder:TCE.

In the case of B3, the “inhibition of TCE activity (complex Incucyte assay, sink chamber with non-coated beads)” value is reported as 1.37 molar ratio binder:TCE.

With B3 the “inhibition of TCE activity (simple Incucyte assay)” value was 1 molar ratio binder:TCE and 4 fold molar excess of binder over TCE.

B3 and B1 are the same in “loss of inhibition of TCE activity (simple Incucyte assay)” value: 1 molar ratio binder:TCE for the first, 1 molar ratio binder:TCE for the second.

For B1, the “blocking of T-cell mediated tumor cell growth inhibition (simple Incucyte assay)” value was 4 fold molar excess of binder over TCE.

With B1 the “inhibition of TCE activity (simple Incucyte assay)” value was 4 fold molar excess of binder over TCE.

In the case of B4, the “loss of inhibition of TCE activity (simple Incucyte assay)” value is reported as 4 fold molar excess of binder over TCE.
